# Assays:
# ACKR4-HA (human) [1] = biological target: T1, ACKR4-HA (human) (UniProt Q9NPB9)
# T1 sequence: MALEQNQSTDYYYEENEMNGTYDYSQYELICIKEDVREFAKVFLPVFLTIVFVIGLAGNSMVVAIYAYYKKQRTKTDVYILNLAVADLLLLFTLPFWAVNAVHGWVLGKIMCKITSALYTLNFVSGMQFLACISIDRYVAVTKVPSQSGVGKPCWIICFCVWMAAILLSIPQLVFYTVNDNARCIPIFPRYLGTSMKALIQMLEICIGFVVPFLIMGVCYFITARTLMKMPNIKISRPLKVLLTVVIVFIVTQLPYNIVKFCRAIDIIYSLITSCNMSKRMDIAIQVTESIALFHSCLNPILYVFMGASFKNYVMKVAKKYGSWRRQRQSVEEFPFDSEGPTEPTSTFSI
# ACKR4-HA (human) [2] = biological target: T1, ACKR4-HA (human); remark: listed apart in the source
# smBiT-βarrestin2, sequence (P32121 whole entry): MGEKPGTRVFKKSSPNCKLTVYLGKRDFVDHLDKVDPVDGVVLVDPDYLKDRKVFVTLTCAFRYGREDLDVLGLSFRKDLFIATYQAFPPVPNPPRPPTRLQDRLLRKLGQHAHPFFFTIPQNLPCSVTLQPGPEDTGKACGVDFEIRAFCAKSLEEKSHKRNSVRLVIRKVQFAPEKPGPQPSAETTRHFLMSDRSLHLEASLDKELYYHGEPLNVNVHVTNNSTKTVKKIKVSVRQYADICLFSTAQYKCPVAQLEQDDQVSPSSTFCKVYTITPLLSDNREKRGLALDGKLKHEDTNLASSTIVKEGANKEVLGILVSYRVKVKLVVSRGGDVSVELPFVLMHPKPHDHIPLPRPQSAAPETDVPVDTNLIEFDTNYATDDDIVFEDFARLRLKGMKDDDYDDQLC
# smBiT-βarrestin1, sequence (P49407 whole entry): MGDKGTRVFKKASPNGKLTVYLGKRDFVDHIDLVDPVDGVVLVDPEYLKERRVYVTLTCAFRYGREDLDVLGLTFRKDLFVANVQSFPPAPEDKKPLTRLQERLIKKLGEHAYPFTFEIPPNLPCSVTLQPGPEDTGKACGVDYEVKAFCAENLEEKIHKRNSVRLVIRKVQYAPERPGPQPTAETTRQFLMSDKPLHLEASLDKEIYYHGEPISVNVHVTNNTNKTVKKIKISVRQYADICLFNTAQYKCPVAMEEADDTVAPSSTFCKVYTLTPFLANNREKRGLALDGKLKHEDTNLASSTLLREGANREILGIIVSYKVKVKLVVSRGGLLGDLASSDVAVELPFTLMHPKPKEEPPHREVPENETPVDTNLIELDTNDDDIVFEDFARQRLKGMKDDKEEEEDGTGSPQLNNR
Substance,"bystander NanoBiT (smBiT-βarrestin1 with lgBiT-CAAX) in HEK293: CCL19-driven recruitment to the plasma membrane, as compared to native ACKR4 (% of native ACKR4) (ACKR4-HA (human) [1])","bystander NanoBiT (smBiT-βarrestin1 with lgBiT-CAAX) in HEK293: pre-association with the plasma membrane in the absence of CCL19, as compared to cells expressing native ACKR4 (times higher than native ACKR4) (ACKR4-HA (human) [2])","bystander NanoBiT (smBiT-βarrestin2 with lgBiT-CAAX) in HEK293: CCL19-driven recruitment to the plasma membrane, as compared to native ACKR4 (% of native ACKR4) (ACKR4-HA (human) [1])","bystander NanoBiT (smBiT-βarrestin2 with lgBiT-CAAX) in HEK293: pre-association with the plasma membrane in the absence of CCL19, as compared to cells expressing native ACKR4 (times higher than native ACKR4) (ACKR4-HA (human) [2])"
smBiT-βarrestin1 (from UniProt P49407 1-418) (natural protein),42,2.9,–,–
smBiT-βarrestin2 (from UniProt P32121 1-409) (natural protein),–,–,27,3.3
